Target: T1, HscA (UniProt P0A6Z1 1-616)
T1 sequence (looked up): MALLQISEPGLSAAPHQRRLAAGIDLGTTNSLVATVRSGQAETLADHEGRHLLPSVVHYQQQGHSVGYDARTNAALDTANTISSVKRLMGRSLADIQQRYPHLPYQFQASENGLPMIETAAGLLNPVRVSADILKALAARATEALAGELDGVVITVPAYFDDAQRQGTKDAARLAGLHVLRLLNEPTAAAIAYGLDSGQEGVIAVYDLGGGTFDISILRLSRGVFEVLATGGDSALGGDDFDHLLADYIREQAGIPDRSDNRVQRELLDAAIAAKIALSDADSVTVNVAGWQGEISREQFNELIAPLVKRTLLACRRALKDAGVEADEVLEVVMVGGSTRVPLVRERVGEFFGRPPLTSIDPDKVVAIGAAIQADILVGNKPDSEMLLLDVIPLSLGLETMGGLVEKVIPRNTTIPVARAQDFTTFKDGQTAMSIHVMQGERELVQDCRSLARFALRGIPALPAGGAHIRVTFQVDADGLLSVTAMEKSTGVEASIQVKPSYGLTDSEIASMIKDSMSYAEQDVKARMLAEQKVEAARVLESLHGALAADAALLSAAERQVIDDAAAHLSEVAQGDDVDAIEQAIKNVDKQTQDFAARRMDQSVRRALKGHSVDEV
Experiment: cell-based or functional assay

HscA ATPase activity, 23 °C, in the absence of IscU: maximal stimulation: 4.4 fold
B1: HscB (wild type) (natural protein, E. coli, UniProt P0A6L9 1-171, looked up)
chain: MDYFTLFGLPARYQLDTQALSLRFQDLQRQYHPDKFASGSQAEQLAAVQQSATINQAWQTLRHPLMRAEYLLSLHGFDLASEQHTVRDTAFLMEQLELREELDEIEQAKDEARLESFIKRVKKMFDTRHQLMVEQLDNETWDAAADTVRKLRFLDKLRSSAEQLEEKLLDF
